According to patent publication US8318473B2, “Biofuel production” (Bio Architecture Lab, Inc., priority 2007, dated 2012):

What was measured:
[1] = NADH/NADPH production assay, oxidation of 4-octanol by secondary alcohol dehydrogenases; type: biochemical; settings: 30° C.; for oxidation of 4-octanol as measured by NADPH production: in the presence of NADP+, FIG. 30B
Procedure: […] consumption and production assays were performed using a THERMOmax microplate reader in the kinetic mode, monitoring the NADPH absorbance peak at 340 nm until the reaction reached equilibrium. […] These reaction conditions are found in Table 4 below.

[2] = NADPH dependent D-mannuronate hydrogenation assay (D-mannuronate hydrogenase); type: biochemical; settings: E. coli cell lysate containing each ADH; NADPH consumption at 340 nm for 30 min; FIG. 7B
Procedure: (§1) To identify D-mannuronate hydrogenase, a NADPH dependent D-mannuronate hydrogenation assay was performed. 20 μl of prepared cell lysate containing each ADH was added to 160 μl of D-mannuronate solution prepared in the above section. 20 μl of 2.5 mg/ml of NADPH solution (20 mM Tris-HCl, pH 8.0) was added to initiate the hydrogenation reaction. The consumption of NADPH was monitored an absorbance at 340 nm for 30 min using the kinetic mode of ThermoMAX 96 well plate reader (Molecular Devises). E. coli cell lysate containing alcohol dehydrogenase (ADH) 10 lacking a portion of N-terminal domain was used in a control reaction mixture.

[3] = In vitro pyruvate formation from alginate with purified enzymes; settings: ~5 ug purified enzyme with Atu3025, UxuA, KdgK, KdgA; 1% alginate or ~0.5% mannuronate; over night; FIG. 6B, 6C
Procedure: The reaction mixture contained 1% alginate or ˜0.5% mannuronate, ˜5 ug of purified Atu3026 (ADH12) or Atu3027 (ADH11), and ˜5 ug of purified oligoalginate lyase (Atu3025), UxuA, KdgK, and KdgA, 2 mM of ATP, and 0.6 mM of NADPH in 20 mM Tris-HCl pH7.0. The reaction was carried out over night and the pyruvate formation was monitored by the pyruvate assay kit (BioVision, Inc).

[4] = NADPH dependent DEHU hydrogenation assay (DEHU hydrogenase); type: biochemical; settings: E. coli cell lysate containing each ADH; NADPH consumption at 340 nm for 30 min; FIG. 7A
Procedure: as §1, with “identify DEHU” for “identify D-mannuronate”, “dependent DEHU” for “dependent D-mannuronate”, “of 20-fold deluted DEHU” for “of D-mannuronate”, “hydrogenation reaction, as a preliminary study using cell Lysate of A. tumefaciens C58 have shown that DEHU hydrogenation requires NADPH as a co-factor.” for “hydrogenation reaction.”

| Molecule | oxidation of 4-octanol as measured by NADPH production [1] | mannuronate hydrogenase activity [2] | further results |
| --- | --- | --- | --- |
| 2ADH-8: secondary alcohol dehydrogenase isolated from Pseudomonas putida KT2440, SEQ ID NO: 124 (protein, Pseudomonas putida KT2440) MSLQGKVALVTGASRGIGQAIALELGRQGATVIGTATSASGAERIAATLKEHGITGTGMELNVTSAESVEAVLAAIGEQFGAPAILVNNAGITRDNLMLRMKDDEWFDVIDTNLNSLYRLSKGVLRGMTKARWGRIISIGSVVGAMGNAGQANYAAAKAGLEGFSRALAREVGSRGITVNSVTPGFIDTDMTRELPEAQREALQTQIPLGRLGQADEIAKVVSFLASDGAAYVTGATVPVNGGMYM | catalyze the oxidation of 4-octanol |  |  |
| 2ADH-10: secondary alcohol dehydrogenase isolated from Pseudomonas putida KT2440, SEQ ID NO: 128 (protein, Pseudomonas putida KT2440) MSKTHLFDLDGKIAFVSGASRGIGEAIAHLLAQQGAHVIVSSRKLDGCQQVADAIIAAGGKATAVACHIGELEQIQQVFAGIREQFGRLDVLVNNAATNPQFCNVLDTDPGAFQKTVDVNIRGYFFMSVEAGKLMRENGGGSIINVASINGVSPGLFQGIYSVTKAAVINMTKVFAKECAPFGIRCNALLPGLTDTKFASALVKNEAILNAALQQIPLKRVADPKEMAGAVLYLASDASSYTTGTTLNVDGGFLS | catalyze the oxidation of 4-octanol |  |  |
| 2ADH-2: secondary alcohol dehydrogenase isolated from Pseudomonas putida KT2440, SEQ ID NO: 112 (protein, Pseudomonas putida KT2440) MSMTFSGQVALVTGAGAGIGRATALAFAHEGMKVVVADLDPVGGEATVAQIHAAGGEALFIACDVTRDAEVRQLHERLMAAYGRLDYAFNNAGIEIEQHRLAEGSEAEFDAIMGVNVKGVWLCMKYQLPLLLAQGGGAIVNTASVAGLGAAPKMSIYSASKHAVIGLTKSAAIEYAKKGIRVNAVCPAVIDTDMFRRAYQADPRKAEFAAAMHPVGRIGKVEEIASAVLYLCSDGAAFTTGHCLTVDGGATAI |  |  | oxidation of 4-octanol as measured by NADH production ([1]; in the presence of NAD+, FIG. 30A): catalyzes the oxidation of 4-octanol |
| ADH3: alcohol dehydrogenase isolated from Agrobacterium tumefaciens C58, polypeptide SEQ ID NO: 74 (protein, Agrobacterium tumefaciens C58) MTKTMKAAVVRAFGKPLTIEEVAIPDPGPGEILINYKATGVCHTDLHAATGDWPVKPNPPFIPGHEGAGYVAKIGAGVTGIKEGDRAGTPWLYTACGCCIPCRTGWETLCPSQKNSGYSVNGSFAEYGLADPKFVGRLPDNLDFGPAAPVLCAGVTVYKGLKETEVRPGEWVVISGIGGLGHMAVQYAKAMGMHVVAADIFDDKLALAKKLGADVVVNGRAPDAVEQVQKATGGVHGALVTAVSPKAMEQAYGFLRSKGTMALVGLPPGFISIPVFDTVLKRITVRGSIVGTRQDLEEALTFAGEGKVAAHFSWDKLENINDIFHRMEEGKIDGRIVVDLAA |  | significant mannuronate hydrogenase activity |  |
| Atu3026: alcohol dehydrogenase isolated from Agrobacterium tumefaciens C58, polypeptide SEQ ID NO: 92 (protein, Agrobacterium tumefaciens C58) MQRFTNRTIVVAGAGRDIGRACAIRFAQEGANVVLTYNGAAEGAATAVAEIEKLGRSALAIKADLTNAAEVEAAISAAADKFGEIHGLVHVAGGLIARKTIAEMDEAFWHQVLDVNLTSLFLTAKTALPKMAKGGAIVTFSSQAGRDGGGPGALAYATSKGAVMTFTRGLAKEVGPKIRVNAVCPGMISTTFHDTFTKPEVRERVAGATSLKREGSSEDVAGLVAFLASDDAAYVTGACYDINGGVLFS |  |  | DEHU hydrogenase and mannuronate hydrogenase reactions in pyruvate formation from alginate [3]: capable of catalyzing both DEHU hydrogenase and mannuronate hydrogenase reactions |
| 2ADH-5: secondary alcohol dehydrogenase isolated from Pseudomonas putida KT2440, SEQ ID NO: 118 (protein, Pseudomonas putida KT2440) MSKQLTLEGKVALVQGGSRGIGAAIVRRLAREGAQVAFTYVSSAGPAEELAREITENGGKALALRADSADAAAVQLAVDDTEKALGRLDILVNNAGVLAVAPVTEFDLADFDHMLAVNVRSVFVASQAAARYMGQGGRIINIGSTNAERMPFAGGAPYAMSKSALVGLTRGMARDLGPQGITVNNVQPGPVDTDMNPASGEFAESLIPLMAIGRYGEPEEIASFVAYLAGPEAGYITGASLTVDGGFAA | catalyze the oxidation of 4-octanol |  |  |
| ADH1: alcohol dehydrogenase isolated from Agrobacterium tumefaciens C58, polypeptide SEQ ID NO: 70 (protein, Agrobacterium tumefaciens C58) MFTTSAYACDDGSSPMKLATIRRRDPGPRDVEIEIEFCGVCHSDIHTARSEWPGSLYPCVPGHEIVGRVGRVGAQVTRFKTGDRVGVGCIVDSCRECASCAEGLEQYCENGMTGTYNSPDKAMGGGAHTLGGYSAHVVVDDRYVLNIPEGLDPAAAAPLLCAGITTYSPLRHWNAGPGKRVGVVGLGGLGHMAVKLANAMGATVVMITTSPGKAEDAKKLGAHEVIISRDAEQMKKATSSLDLIIDAVAADHDIDAYLALLKRDGALVQVGAPEKPLSVMAFSLIPGRKTFAGSMIGGIPETQEMLDFCAEKGIAGEIEMIDIDQINDAYERMIKSDVRYRFVIDMKSLPRQKAA |  |  | DEHU hydrogenase activity [4]: significant DEHU hydrogenase activity |
| ADH2: alcohol dehydrogenase isolated from Agrobacterium tumefaciens C58, polypeptide SEQ ID NO: 72 (protein, Agrobacterium tumefaciens C58) MAIARGYAATDASKPLTPFTFERREPNDDDVVIDIKYAGICHSDIHTVRNEWHNAVYPIVPGHEIAGVVRAVGSKVTRFKVGDHVGVGCFVDSCVGCATRDVDNEQYMPGLVQTYNSVERDGKSATQGGYSDHIVVREDYVLSIPDNLPLDASAPLLCAGITLYSPLQHWNAGPGKKVAIVGMGGLGHMGVKIGSAMGADITVLSQTLSKKEDGLKLGAKEYYATSDASTFEKLAGTFDLILCTVSAEIDWNAYLNLLKVNGTMVLLGVPEHAIPVHAFSVIPARRSLAGSMIGSIKETQEMLDFCGKHDIVSEIETIGIKDVNEAYERVLKSDVRYRFVIDMASLDA |  |  | DEHU hydrogenase activity [4]: significant DEHU hydrogenase activity |
| ADH9: alcohol dehydrogenase isolated from Agrobacterium tumefaciens C58, polypeptide SEQ ID NO: 86 (protein, Agrobacterium tumefaciens C58) MKAIVAHGAKDVRIEDRPEEKPGPGEVRLRLARGGICGSDLHYYNHGGFGAVRLREPMVLGHEVSAVIEELGEGVEGLKIGGLVAVSPSRPCRTCRFCQEGLHNQCLNMRFYGSAMPFPHIQGAFREILVADALQCVPADGLSAGEAAMAEPLAVTLHATRRAGDLLGKRVLVTGCGPIGILSILAARRAGAAEIVATDLSDFTLGKAREAGADRVINSKDEPDALAAYGANKGTFDILYECSGAAVALAGGITALRPRGIIVQLGLGGDMSLPMMAITAKELDLRGSFRFHEEFATGVELMRKGLIDVKPFITQTVDLADAISAFEFASDRSRAMKVQIAFS |  | significant mannuronate hydrogenase activity |  |
| ADH4: alcohol dehydrogenase isolated from Agrobacterium tumefaciens C58, polypeptide SEQ ID NO: 76 (protein, Agrobacterium tumefaciens C58) MTGANQPWEVQEVPVPKAEPGLVLVKIHASGMCYTDVWATQGAGGDIYPQTPGHEVVGEIIEVGAGVHTRKVGDRVGTTWVQSSCGRCSYCRQNRPLTGQTAMNCDSPRTTGFATQGGHAEYIAISAEGTVLLPDGLDYTDAAPMMCAGYTTWSGLRDAEPKPGDRIAVLGIGGLGHVAVQFSKALGFETIAITHSPDKHKLATDLGADIVVADGKELLEAGGADVLLVTTNDFDTAEKAMAGVRPDGRIVLCALDFSKPFSIPSDGKPFHMMRQRVVGSTHGGQHYLAEILDLAAKGKVKPIVETFALEQATEAYERLSTGKMRFRGVFLPHGA |  | significant mannuronate hydrogenase activity |  |
